Legend:
[1] = tested on: anti-isatuximab antibodies; assay: Immunogenicity: antidrug antibodies (ADA); set-up: species or system human; conditions: in vivo
Protocol: The presence of antidrug antibodies (ADA, i.e., anti-isatuximab antibodies) in patients in the IPd arm were assessed throughout the study.

[2] = Population pharmacokinetics of isatuximab; type: in vivo, human; conditions: patients with renal impairment vs those without
Excerpt: Blood samples were collected from all patients treated with […] to assess the pharmacokinetic profile of isatuximab using population pharmacokinetic approach.

## isatuximab: anti-CD38 antibody, CAS Registry Number 1461640-62-9; heavy chain SEQ ID NO: 10, light chain SEQ ID NO: 11
[1]
  anti-drug antibodies (ADA): No positive ADA
[2]
  Pharmacokinetic parameters: comparable between patients with renal impairment and those without

From US11939390B2, “Methods of treating multiple myeloma” (Sanofi-Aventis U.S. LLC, priority 2019, dated 2024)
